This experiment addresses RBD (UniProt P0DTC2 319-541). Briefly: SPR. Background: SPR reads the build-up and loss of mass on a sensor chip optically.

B1: Nb21 (VHH)
VHH: QVQLVESGGGLVQAGGSLRLSCAVSGLGAHRVGWFRRAPGKEREFVAAIGANGGNTNYLDSVKGRFTISRDNAKNTIYLQMNSLKPQDTAVYYCAARDIETAEYTYWGQGTQVTVSS
For orientation: Kd means the equilibrium constant for the complex coming apart. Lower therefore signals higher affinity. B1 returned a Kd of less than 1 pM.
